# Non-standard residues stand in square brackets, D forms with d. Nle = CCCC[C@H](N)C(=O)O
# Biological target: T1, human IL-1β (Homo sapiens, UniProt P01584)
# T1 construct: purchased Amersham Japan
# Experiment: Binding activity for human IL-1: 125I-labelled human IL-1β retained on peptide-immobilized cellulose adsorbent
# Details: radioactivity remaining on 100 mg adsorbent (1 mg peptide fixed per g cellulose) after about 300 Bq 125I-labelled human IL-1β, room temperature 3 hours, 5 washes; γ counter
# Experimental: Adsorbents each having fixed 1 mg of one of the peptides obtained in Examples 1 through 15 and the Comparative Example were prepared as follows. One gram of a granular cellulose (CM-CELLULOFINE CH, available from Seikagaku Kogyo Co., Ltd.) is suspended in 5 ml of dioxane purified by distillation in the presence of sodium metal. To the suspension thus obtained was added 0.05 g of N-hydroxysuccinimide and 0.1 g of dicyclohexylcarbodimide, and the mixture was shaken at a room temperature for 1 night. The mixture thus obtained was washed with a 0.02 mole/l phosphate buffer (pH: 7.4) and then filtered with suction. The granules thus obtained were mixed with 1 ml of 0.02 mol/l phosphate buffer or purified water containing 1 mg of each one of the peptides obtained in Examples 1 through 15 and the Comparative Example. The mixtures were shaken overnight at a temperature of 4° C. and filtered with suction.
# From the thus prepared adsorbents, 100 mg each was weighed, and thereto was added 100 μl of 5% solution of bovine serum albumin in PBS (a 10 mM phosphate buffer solution containing 0.15M NaCl, pH: 7.4). The mixtures were incubated overnight at 4° C., then about 300 Bq of ^125 I-labelled human IL-1β (purchased from Amersham Japan) was added to them and the mixtures were incubated at a room temperature for 3 hours. The reaction mixtures thus obtained were washed 5 times with Tris buffer containing 0.2% of Triton X-100 and then tested for radioactivity remaining on the adsorbents with a γ counter.
# T1 sequence (P01584 117-269): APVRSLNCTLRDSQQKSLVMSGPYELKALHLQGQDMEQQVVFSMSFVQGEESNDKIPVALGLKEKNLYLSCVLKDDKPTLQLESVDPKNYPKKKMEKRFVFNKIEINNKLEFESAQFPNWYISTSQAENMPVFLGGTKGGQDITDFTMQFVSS
row,Compound,Radioactivity (cpm)
1,H-Lys-Cys-Leu-Gln-Ile-Gln-Ile-Ser-OH (H-KCLQIQIS-OH) [Example 9],1100
2,H-Lys-Ile-Cys-Ile-His-Ile-Gln-Ile-Ser-OH (H-KICIHIQIS-OH) [Example 12],1167
3,H-Lys-Asn-Ser-Ser-Tyr-Cys-Leu-Arg-Ile-Lys-Ile-Ser-Ala-Lys-Phe-Val-Glu-OH (H-KNSSYCLRIKISAKFVE-OH) [Example 2],764
4,H-Lys-Ile-Cys-Ile-Arg-Ile-Gln-Ile-Ser-OH (H-KICIRIQIS-OH) [Example 10],1373
5,H-CLRIKIS-OH [Example 6],815
6,H-Tyr-Cys-Leu-Arg-Ile-Lys-Ile-Ser-Ala-Lys-OH (H-YCLRIKISAK-OH) [Example 4],891
7,H-Lys-Cys-Val-Gln-Val-Gln-Val-Ser-OH (H-KCVQVQVS-OH) [Example 14],890
8,H-Lys-Ile-Cys-Leu-Arg-Ile-Gln-Ile-Ser-OH (H-KICLRIQIS-OH) [Example 13],1245
9,"NCC(=O)O [Reference Example, glycine, reference compound]",45
10,"H-Tyr-Ser-Leu-Glu-Ile-Lys-Ile-Ser-OH (H-YSLEIKIS-OH) [Comparative Example, reference compound]",84
11,H-Lys-Ile-Cys-Ile-Arg-Ile-Gln-Ile-Ser-NH2 (H-KICIRIQIS-NH2) [Example 15],1427
12,H-K[Nle]C[Nle]R[Nle]Q[Nle]S-OH [Example 11],1292
13,H-Lys-Tyr-Cys-Leu-Arg-Ile-Lys-Ile-Ser-Ala-Lys-Phe-Val-Glu-Asn-Glu-Pro-OH (H-KYCLRIKISAKFVENEP-OH) [Example 3],1171
14,H-Val-Val-Arg-Asn-Ser-Ser-Tyr-Cys-Leu-Arg-Ile-Lys-Ile-Ser-Ala-Lys-OH (H-VVRNSSYCLRIKISAK-OH) [Example 1],922
15,H-Lys-Cys-Leu-Arg-Ile-Lys-Ile-Ser-OH (H-KCLRIKIS-OH) [Example 7],576
16,H-Cys-Leu-Gln-Ile-Lys-Ile-Ser-OH (H-CLQIKIS-OH) [Example 8],678
17,H-Tyr-Cys-Leu-Arg-Ile-Lys-Ile-Ser-OH (H-YCLRIKIS-OH) [Example 5],840

# Reference: patent publication US5624900A, “Peptide or its salts” (Kuraray Co., Ltd., priority 1990, dated 1997)
